Experimental data reported in the Human Domainome abundance scans (Beltran et al. 2025).
± gives the uncertainty stated by the source.

B1: Protein C-ets-1, residues 55 to 135; numbered along this chain, P14921 (parent)
chain: GFTKEQQRLGIPKDPRQWTETHVRDWVMWAVNEFSLKGVDFQKFCMNGAALCALGKDCFLELAPDFVGDILWEHLEILQKE

Variants of: B1
Experiment: abundance fitness (aPCA) (normalised: wild type 0, dead -1); higher = more abundant; growth selection in yeast, the domain comes from the species named
Settings: Homo sapiens

Compared with GFTKEQQRLGIPKDPRQDTETHVRDWVMWAVNEFSLKGVDFQKFCMNGAALCALGKDCFLELAPDFVGDILWEHLEILQKE [W18D], GFTKEQQRLGIPKDPRQWTETHVRDWVMWAVNEFSLKMVDFQKFCMNGAALCALGKDCFLELAPDFVGDILWEHLEILQKE [G38M] is higher in abundance fitness: -0.962 ± 0.24 for the first, -0.273 ± 0.048 for the second.

First: GFTKEQQRLGIPKDPRQWTETHVRDPVMWAVNEFSLKGVDFQKFCMNGAALCALGKDCFLELAPDFVGDILWEHLEILQKE [W26P]
Second: GFTKEQQRLGIPKDPRQWTETHVRDWVMWAVNEFSLKGVDFQKFCMNGAALCALGKDCFGELAPDFVGDILWEHLEILQKE [L60G]
The abundance fitness of the first is lower: -0.861 ± 0.048 for the first, -0.1 ± 0.029 for the second.

Going from GFTKEQQRLGIPKDPRQWTETHVRDWVMWAVNEFSLKGVDFQKFCMNGADLCALGKDCFLELAPDFVGDILWEHLEILQKE [A50D] to GFTKEQQRLGIPKDPRQWTETHVRDWVMWAVNEFSLKGVDFQKFCMNGAALCALGKDCFLELAPDFVGDILWEHLEIRQKE [L78R], the abundance fitness falls from 0.026 ± 0.05 to -0.583 ± 0.035.

Compared with GFTKEQQRLGIPKDPRQWTETHVRDWVMWAVNEFSLKGVPFQKFCMNGAALCALGKDCFLELAPDFVGDILWEHLEILQKE [D40P], GFTKEQQRLGIPKDPRQWTETHVRDWVMWAVNEFSLKGVDFQKFCMNGAALCALGKDCFLELAPDFVGDIQWEHLEILQKE [L71Q] is lower in abundance fitness: -0.343 ± 0.051 for the first, -0.938 ± 0.17 for the second.

Going from GFTKEQCRLGIPKDPRQWTETHVRDWVMWAVNEFSLKGVDFQKFCMNGAALCALGKDCFLELAPDFVGDILWEHLEILQKE [Q7C] to GFTCEQQRLGIPKDPRQWTETHVRDWVMWAVNEFSLKGVDFQKFCMNGAALCALGKDCFLELAPDFVGDILWEHLEILQKE [K4C], the abundance fitness rises from -0.256 ± 0.06 to -0.108 ± 0.065.

GFTTEQQRLGIPKDPRQWTETHVRDWVMWAVNEFSLKGVDFQKFCMNGAALCALGKDCFLELAPDFVGDILWEHLEILQKE [K4T] and GFQKEQQRLGIPKDPRQWTETHVRDWVMWAVNEFSLKGVDFQKFCMNGAALCALGKDCFLELAPDFVGDILWEHLEILQKE [T3Q] are within error of each other in abundance fitness: -0.071 ± 0.066 for the first, -0.032 ± 0.067 for the second.

Going from GFTKLQQRLGIPKDPRQWTETHVRDWVMWAVNEFSLKGVDFQKFCMNGAALCALGKDCFLELAPDFVGDILWEHLEILQKE [E5L] to GFTKEQQRLGIPKDPRQWTETHVRDWVMWAVNEFSLKGVDFQKFCMNGAALCACGKDCFLELAPDFVGDILWEHLEILQKE [L54C], the abundance fitness falls from -0.108 ± 0.044 to -0.666 ± 0.079.

GFTKEQQSLGIPKDPRQWTETHVRDWVMWAVNEFSLKGVDFQKFCMNGAALCALGKDCFLELAPDFVGDILWEHLEILQKE [R8S] and GFTKEQQRLGIPKDPRQWTETHVRDWVMWAVNEFSLKGVDFQKFCMNGAALCALGKDCFLELAPDFVGQILWEHLEILQKE [D69Q] are within error of each other in abundance fitness: -0.136 ± 0.05 for the first, -0.03 ± 0.066 for the second.

Compared with GFTKEQQRLGIPKDPRQWTETHVRDWVMWAVNEFSLKGVDFQVFCMNGAALCALGKDCFLELAPDFVGDILWEHLEILQKE [K43V], GFTKEQQRLGIPKDPRQWTETHVRDWVMWAVNEFSLKGVDFQKFCMNGAALCALGKDCFLELAPDFVGHILWEHLEILQKE [D69H] is higher in abundance fitness: -0.425 ± 0.045 for the first, -0.153 ± 0.083 for the second.

GFTKEQQRLGIPKDPRQWTETHVRDWVMWAVNEFSLKGVDFQKFCMNGAALCALGKDDFLELAPDFVGDILWEHLEILQKE [C58D] and GFTKEFQRLGIPKDPRQWTETHVRDWVMWAVNEFSLKGVDFQKFCMNGAALCALGKDCFLELAPDFVGDILWEHLEILQKE [Q6F] are within error of each other in abundance fitness: 0.056 ± 0.07 for the first, -0.075 ± 0.088 for the second.

Compared with GFTKEQQRLGIPKDPRQWTETHVRDWVMWAVNEFSLKGVDFQKRCMNGAALCALGKDCFLELAPDFVGDILWEHLEILQKE [F44R], GFTKEQQRLGIPKDPRQWTETHVRDWVMWAVNEFSVKGVDFQKFCMNGAALCALGKDCFLELAPDFVGDILWEHLEILQKE [L36V] is higher in abundance fitness: -0.939 ± 0.1 for the first, -0.276 ± 0.037 for the second.

GFTKEQQRLGIPKDPRQWTETHVRDWVMWAVNEFSLKGVDFQKFCMNGAALCALGKFCFLELAPDFVGDILWEHLEILQKE [D57F] and GFTKEQQRLGIPKSPRQWTETHVRDWVMWAVNEFSLKGVDFQKFCMNGAALCALGKDCFLELAPDFVGDILWEHLEILQKE [D14S] are within error of each other in abundance fitness: -0.303 ± 0.065 for the first, -0.339 ± 0.038 for the second.

GFTKEQQRLGIPKDPRQWTETHVRDWVMWAVNEFSLKGVDFQKFCMNGAALCALGKPCFLELAPDFVGDILWEHLEILQKE [D57P] and GFTAEQQRLGIPKDPRQWTETHVRDWVMWAVNEFSLKGVDFQKFCMNGAALCALGKDCFLELAPDFVGDILWEHLEILQKE [K4A] are within error of each other in abundance fitness: -0.109 ± 0.033 for the first, -0.178 ± 0.051 for the second.

GFTKEQQRLGIPKDPRQWTEMHVRDWVMWAVNEFSLKGVDFQKFCMNGAALCALGKDCFLELAPDFVGDILWEHLEILQKE [T21M] and GFTKEQQRLGIPKDPRQWTETHVRDWVMWAVNEFSLKGVDFQKFCMNGAALCALGKDCFLELAPGFVGDILWEHLEILQKE [D65G] are within error of each other in abundance fitness: -0.058 ± 0.059 for the first, 0.024 ± 0.027 for the second.

Compared with GFTKEQQRLGIPKDPRQWTETHVRDWVMWAVNEFSLKGVDFQKFCMNGAALCALGKDCFLELAPDFVGDIVWEHLEILQKE [L71V], GFTKEQQRLGIPKDPRQWTETHVRDWVMWAVFEFSLKGVDFQKFCMNGAALCALGKDCFLELAPDFVGDILWEHLEILQKE [N32F] is higher in abundance fitness: -1.05 ± 0.079 for the first, -0.399 ± 0.073 for the second.

Compared with GFTKEQQCLGIPKDPRQWTETHVRDWVMWAVNEFSLKGVDFQKFCMNGAALCALGKDCFLELAPDFVGDILWEHLEILQKE [R8C], GFTKEQQRLGIPKDPRQWTETHVRDWVMWAVNEFSLKGVDMQKFCMNGAALCALGKDCFLELAPDFVGDILWEHLEILQKE [F41M] is higher in abundance fitness: -0.154 ± 0.052 for the first, 0.056 ± 0.067 for the second.

Compared with GFTKEQQRLGIPKDPRQWLETHVRDWVMWAVNEFSLKGVDFQKFCMNGAALCALGKDCFLELAPDFVGDILWEHLEILQKE [T19L], GFTKEYQRLGIPKDPRQWTETHVRDWVMWAVNEFSLKGVDFQKFCMNGAALCALGKDCFLELAPDFVGDILWEHLEILQKE [Q6Y] is higher in abundance fitness: -0.376 ± 0.038 for the first, -0.058 ± 0.078 for the second.
